The source of these data is US10526611.

The target in the assay is full-length GALLS (GALLS-FL) fused in frame with LexA in yeast bait vector pEG202 (pE3462). Nature of the assay: cell-based or functional assay.

Turning to “LSH10 (GIP, GALLS Interacting Protein; At2g42610) expressed from the yeast two-hybrid prey vector pGAD424 (from UniProt Q9S7R3 1-177)”, the β-galactosidase units (β-galactosidase units) came out at 6.
